The target in test [1] is T1, recombinant human Galectin-9 (human, UniProt O00182-2 1-323, limits assumed).
T1 construct: also called hGal9M; human Gal9
As to the kind of experiment: binding to recombinant human Gal-9, OD read-out over antibody concentration (nM); table under the curves.

Test [2] concerns the target T2, Gal9 (Galectin-9) as used in Examples 3 to 5 (Homo sapiens (Human), UniProt O00182 1-323). As to the kind of experiment: CD44 blocking Assay: binding (%) of Gal9 to CD44 over antibody concentration; ambiguous fit marked '~', R2 printed 0,9183; no unit in the table, nM from the axis 'Antibody [nM]'.
Test [3] has as its target T3, recombinant mouse Galectin-9 (mouse, UniProt O08573-2 1-322, limits assumed).
T3 construct: also called mGal9M; mouse Gal9
Kind of test: binding to recombinant mouse Gal-9, OD read-out over antibody concentration (nM); table under the curves.

For test [4], the target named is T2, Gal9 (Galectin-9) as used in Examples 3 …. As to the kind of experiment: Tim3 blocking Assay: binding (%) of Gal9 to TIM3 over antibody concentration; ambiguous fit marked '~', R2 printed 0,9819; no unit in the table, nM from the axis 'Antibody [nM]'.
Test [5] shares this target. Kind of test: Tim3 blocking Assay: binding (%) of Gal9 to TIM3 over antibody concentration; ambiguous fit marked '~', R2 printed 0,8078; no unit in the table, nM from the axis 'Antibody [nM]'.
Test [6] shares this target. Kind of test: CD44 blocking Assay: binding (%) of Gal9 to CD44 over antibody concentration; ambiguous fit marked '~', R2 printed 0,7386; no unit in the table, nM from the axis 'Antibody [nM]'.
For test [7] the target is unchanged. As to the kind of experiment: Tim3 blocking Assay: binding (%) of Gal9 to TIM3 over antibody concentration; ambiguous fit marked '~', R2 printed 0,8826; no unit in the table, nM from the axis 'Antibody [nM]'.
For test [8] the target is unchanged. Kind of test: CD44 blocking Assay: binding (%) of Gal9 to CD44 over antibody concentration; very poor fit, R2 printed 0,07344; no unit in the table, nM from the axis 'Antibody [nM]'.
Test [9] has the same target. As to the kind of experiment: CD44 blocking Assay: binding (%) of Gal9 to CD44 over antibody concentration; R2 printed 0,9790; no unit in the table, nM from the axis 'Antibody [nM]'.
Test [10] has the same target. Kind of test: Tim3 blocking Assay: binding (%) of Gal9 to TIM3 over antibody concentration; R2 printed 0,9956; no unit in the table, nM from the axis 'Antibody [nM]'.
The target is the same in test [11]. As to the kind of experiment: Tim3 blocking Assay: binding (%) of Gal9 to TIM3 over antibody concentration; R2 printed 0,9756; no unit in the table, nM from the axis 'Antibody [nM]'.
Test [12] has as its target T1, recombinant human Galectin-9. As to the kind of experiment: BLI (Octet). The method, then:
(§1) Antibody binding affinity was measured using the commercially available Octet system from ForteBio (Creative Biolabs). According to the Creative Biolabs description, the Octet platform is based on bio-layer interferometry (BLI) technology that utilizes a whole set of system including instruments, biosensors, reagents and assay kits to support the evaluation of biomolecular interactions in 96- or 384-well microplates. Octet system uses Dip-and-Read assay mode to avoid the need of microfluidics, and enables the real-time, label-free analysis of affinity as well as kinetics. There are three biosensor-based assay orientations that can be used to explore antibody interaction: tandem blocking, premix blocking and classical sandwich. Compared to Biacore, Octet's dip-and-read assay allows longer analyte-binding steps and […] the rebinding of analyte to the ligand-coated sensors. Meanwhile, faster association time consumes less sample, which saves your precious proteins.
In general terms: BLI is a label-free optical method that tracks binding on a fibre tip over time.

The target of test [13] is T3, recombinant mouse Galectin-9. Kind of test: BLI (Octet). The method, then: as §1
For test [14], the target named is T2, Gal9 (Galectin-9) as used in Examples 3 …. As to the kind of experiment: CD44 blocking Assay: binding (%) of Gal9 to CD44 over antibody concentration; ambiguous fit marked '~', R2 printed 0,9720; no unit in the table, nM from the axis 'Antibody [nM]'.
Test [15] shares this target. Kind of test: Tim3 blocking Assay: binding (%) of Gal9 to TIM3 over antibody concentration; R2 printed 0,9960; no unit in the table, nM from the axis 'Antibody [nM]'.

Residue numbers refer to the chain shown, from its start. Several values for one entry are separate records, joined by “and”; a condition that tells them apart may be missing. Equal entries are not always repeated.

T3 sequence (O08573 other isoform, or with tags, fused parts or gaps limits assumed): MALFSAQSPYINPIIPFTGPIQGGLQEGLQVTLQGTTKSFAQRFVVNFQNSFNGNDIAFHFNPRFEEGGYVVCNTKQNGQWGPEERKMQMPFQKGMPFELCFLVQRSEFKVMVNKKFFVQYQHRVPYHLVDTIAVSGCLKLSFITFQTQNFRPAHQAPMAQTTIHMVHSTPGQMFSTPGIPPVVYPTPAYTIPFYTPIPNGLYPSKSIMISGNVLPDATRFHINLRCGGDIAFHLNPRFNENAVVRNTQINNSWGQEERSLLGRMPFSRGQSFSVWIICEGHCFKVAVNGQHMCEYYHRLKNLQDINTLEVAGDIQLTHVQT
T1 sequence (O00182 other isoform, or with tags, fused parts or gaps limits assumed): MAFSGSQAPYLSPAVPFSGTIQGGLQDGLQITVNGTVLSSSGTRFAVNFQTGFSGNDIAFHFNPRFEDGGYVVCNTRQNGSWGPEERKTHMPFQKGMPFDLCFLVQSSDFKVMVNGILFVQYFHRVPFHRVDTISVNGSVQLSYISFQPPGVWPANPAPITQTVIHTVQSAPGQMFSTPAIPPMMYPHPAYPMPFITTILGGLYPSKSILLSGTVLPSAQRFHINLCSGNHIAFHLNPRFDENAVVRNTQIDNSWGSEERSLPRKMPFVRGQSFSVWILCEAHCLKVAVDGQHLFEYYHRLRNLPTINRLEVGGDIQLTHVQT
T2 sequence (O00182 other isoform, or with tags, fused parts or gaps limits assumed): as above

B1: HFB9-1hz2-hG1AA (antibody, human IgG1, V domains shown)
VH: QVQLVQSGAEVKKPGSSVKVSCKASGYTFTDYTIHWVRQAPGQGLEWMGWFYPGSHSIKYAQKFQGRVTITADKSTSTAYMELSSLRSEDTAVYFCTRHGGYDGFDYWGQGTLVTVSS
VL: DIVMTQSPDSLAVSLGERATINCKSSQSLFYSTNQKNYLAWYQQKPGQPPKLLIYWASTRESGVPDRFSGSGSGTDFTLTISSLQAEDVAVYYCQQYYYFPYTFGQGTKLEIK
notes: Humanized variant of HFB9-1
On to B1, for which the EC50 (in general, the concentration at which the effect is half-maximal) in test [1] was found to be 0.15 nM; in test [3], 0.828 nM. Also, the IC50 – broadly, the concentration at which inhibition is half-maximal – in test [2] is around 63.1 nM; in [4], around 59.8 nM.

B2: HFB9-1hz1-hG1AA (antibody, human IgG1, V domains shown)
VH: B1 VH with S16A, I70M, K74T, T76I, S85R, E89D
VL: B1 VL
notes: Humanized variant of HFB9-1
In the case of B2, the EC50 in [1] turned out to be 0.153 nM. Besides, the IC50 in test [5] is around 52.1 nM; in test [6], around 255 nM.

B3: HFB9-1hz4-hG1AA (antibody, V domains shown)
VH: B1 VH with F95Y, T97A
VL: B1 VL
notes: humanized variant of HFB9-1
In the case of B3, the EC50 in test [1] turned out to be 1.84 nM.

B4: HFB9-1hz3-hG1AA (antibody, human IgG1, V domains shown)
VH: B1 VH with F95Y
VL: B1 VL
notes: Humanized variant of HFB9-1
Consider B4, for which the IC50 is around 183 nM in test [7] and 0.0616 nM in test [8]. The EC50 turned out to be 0.142 nM in test [1] and 0.98 nM in test [3].

B5: HFB9-2hz14-hG1AA (antibody, human IgG1, V domains shown)
VH: EVQLVQSGAEVKKPGESLKISCKGSGYTFTEYTIHWVRQMPGKGLEWMGWFYPGSGSTEYSPSFQGQVTISADKSISTAYLQWSSLKASDTAMYYCERHGGYDGFDYWGQGTTVTVSS
VL: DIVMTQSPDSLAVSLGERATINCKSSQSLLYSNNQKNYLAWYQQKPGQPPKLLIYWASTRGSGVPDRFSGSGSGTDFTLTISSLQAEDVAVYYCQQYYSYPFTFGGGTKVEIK
notes: Humanized variant of HFB9-2; also called 2h14
On to B5, for which the IC50 in test [9] came out at 48.7 nM; in test [10] it was 37.1 nM. For the same molecule, in [1], the EC50 was determined as 0.144 nM.

B6: HFB9-2hz13-hG1AA (antibody, human IgG1, V domains shown)
VH: QVQLVQSGAEVKKPGASVKVSCKASGYTFTEYTIHWVRQAPGQGLEWMGWFYPGSGSTEYAQKFQGRVTMTADTSTSTVYMELSSLRSEDTAVYYCERHGGYDGFDYWGQGTTVTVSS
VL: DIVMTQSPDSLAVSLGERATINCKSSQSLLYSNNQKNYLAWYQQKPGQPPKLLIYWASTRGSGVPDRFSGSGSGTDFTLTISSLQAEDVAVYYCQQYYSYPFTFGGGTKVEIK
notes: Humanized variant of HFB9-2
Regarding B6, in test [11], the concentration for half-maximal inhibition (IC50) was found to be 51.4 nM. The EC50 in test [1] was 0.128 nM; in test [3], 0.496 nM.

B7: HFB9-2hz12-hG1AA (antibody, V domains shown)
VH: B6 VH with A16S, T58A, M70I, T74E, V79A
VL: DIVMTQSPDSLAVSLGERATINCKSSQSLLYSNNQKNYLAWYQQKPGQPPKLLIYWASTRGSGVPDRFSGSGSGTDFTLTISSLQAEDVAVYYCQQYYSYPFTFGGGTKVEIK
notes: humanized variant of HFB9-2
On to B7, for which, in test [1], the EC50 is 0.57 nM.

B8: HFB9-2hz11-hG1AA (antibody, IgG1, V domains shown)
VH: B6 VH with T76I, V79A, S85R, E89D, Y95F
VL: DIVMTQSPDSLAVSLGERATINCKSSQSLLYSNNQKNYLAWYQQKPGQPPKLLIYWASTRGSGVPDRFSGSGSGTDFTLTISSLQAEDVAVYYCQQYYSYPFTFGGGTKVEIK
notes: Humanized variant of HFB9-2; also called HFB9-2hz11-hG1AA MF20191024
For the molecule B8, the Kd (commonly the free concentration of one partner at which half of the binding sites on the other are occupied at equilibrium, for simple one-to-one binding) in test [12] is 4.84 nM and 1.96 nM. In addition, the koff (usually the rate constant with which the complex falls apart) is 0.000352 s⁻¹ and 0.000179 s⁻¹ in [12]; 0.000462 s⁻¹ and 0.000606 s⁻¹ in test [13]. Moreover, the kon (in general, the second-order rate constant of association) was 72800 M⁻¹ s⁻¹ and 91400 M⁻¹ s⁻¹ in [12]; 402000 M⁻¹ s⁻¹ and 166000 M⁻¹ s⁻¹ in test [13]. The IC50 in [14] is around 39.6 nM; in [15] it was 25.3 nM. For the same molecule, the EC50 came out at 0.117 nM in test [1] and 0.533 nM in test [3].

Values taken from patent publication US20230054718A1 (HIFIBIO HK, published 2023).
